Results: the DeepSol protein solubility set

Assay: soluble on expression in E. coli; label from the status in PepcDB or PDB records

Sequence	soluble on expression in E. coli
MTEIQTIRKKVEQQITSLQNETDEIAEFNQAKVLDAFQENKVSDFHFNPSTGYGYDDEGRDTLERVYASVFKTEAALVRPQIISGTHAISTVLFGILRPGDELLYITGEPYDTLEEIVGIRSEGQGSLKDFQIGYDAVPLLPNGEIDYPAVSKKISANTKMIGIQRSRGYADRPSFTIEKIKEMVTFVKNINPNIIVFVDNCYGEFVERIEPTEVGADIIAGSLIKNPGGGLAKTGGYIAGRNTLVDLCGYRLTTPGIGREAGASLYSLLEMYQGFFLAPHVTAQAIKGARFTAAMLAEFGVEADPLWDAKRTDLIQSVSFHSKDKMIAFAQAIQAASPVNAHVLPIGAYMPGYEDDVIMAAGTFIQGASLELTADGPIREPYQLYVQGGLTYEHVKIAVTRAIENSLLEHHHHHH	soluble
MTEKTIEFEGIEPVIIFGPYDSYLKKVREAFPDIRINARGAKITIGGDEPDLTAIEKIFREIIFLADQHGEVLENDVNALVSLALSPVSHPSAALSGDKDVIVETKDYVVKAKTDGQRRMVAEAAGNDIVFAIGPAGTGKTYTAVAIAVAAWKAKKIKRIVLARPAVEAGESLGFLPGDLAQKIDPYLRPLYDALQDMLTAEKLKFLTERRVIEIVPLAYMRGRTLNNSFIILDEAQNASSKQMMMCLTRLGVNSKAIITGDVTQVDLPKEMESGLMNAQKILKGIKGISFVFLDKSDVVRHRLVKDIINAYEHHEEGLRKGAPKEAEL	not soluble
MTENLTVQPERLGVLASHHDNAAVDASSGVEAAAGLGESVAITHGPYCSQFNDTLNVYLTAHNALGSSLHTAGVDLAKSLRIAAKIYSEADEAWRKAIDGLFT	soluble
MTEPRSYTIEEIASLLKVSKLTVYDLVKKGKLPAFRVGRQMRITADDLRRFIAGQKGEASTVFSAVSRPTETAFRPIIISGQDMALDLLGVHLEKGGPYQSLRTYTSSLNGLIALYKGQCDIVSVHLFDGQTGEYNRPYVEKLLTGHAYIMVNLMRRPIGFYVPKGNPRGIHTWSDLGRSDVVIVNREKGAGARVLLDEQLRLHGLSPSAIRGYEREETSHLSVASAVAAGLADVGIGTEKVARMAGVEFIPLMNEQYDVVMLRTPENESLIASVLDVLRSDSFRAELEALGGYDVSQTGRIMAEYG	not soluble
MTEQTSPESLTDGAHSKTDSAWPLACNLEPRLVSRGRWQTTQWMLHGFSLTPEAQSQYVATLHLYRDERTDYRFNLSSQAPKLFLVAEDPIEDQPLKVVQLTASQAVASRYMDSDYLVLSADMPLPVQALMEAYIGRHGELLEIRRKKREGAGRSCGN	not soluble
MTETKDKQLSRIVLKGFKSIAKCDLEISRVNILIGANGAGKSNFIGFFRMVGQLVEENLQVFVSRQGSPDALLHFGRKTTEHLEFQLYFGNNGYFATLEPTQDNRLMFARESFWWNMSGEHEIGRGHFETKVLTSTRTGIDEYVLSAMQQWRVYHFHDTSESAYIKQPHGINDNAYLRPDARNLASFLYLLRNSYPASYQRIVKTIRLVAPFFGDFYLRPAPQNKEVIELEWFERGQDIPFKAYLLSDGTLRFMCLATVFLQPEDLQPETILVDEPELGLHPYAITVLASLMRTASKQVIVSTQSIELLNQFEAKDVIVVDRSEGSSYLRRLNQGDRIHFTGYSLLEHHHHHH	soluble
MTEVAKGVATHQRLVALLTQENARYRVVNHEAVGKCEAVSEIRGTALGQGAKALVCKVKGNGVNQHVLAILAADQQADLSQLASHLGGLRASLASPAEVDMLTGCVFGAIPPFSFHPNLKLVADPLLFERFDEIAFNAGLLEKSVIMNTQDYLRIARPELAVFRRFQSSPTA	not soluble
MTFQKHVAHTQPAKLATTPSPPGTATTPSLMSEDDDHRTITESQEKRRSWLERLSAAFSGDPHTLDDLMVILRSAEHHGIIATDTLRMMEGAIAIADLTVGDVMVPRSQMVSLPVESDLQTITKQMVESGHSRFPVHGENKDEVLGILLAKDLLRGVSANHTITNVHELLRPVGMIPESKKLNVLLKEFRLSHNHMAIVVDEYGGVAGLVTIEDILEQIVGDIDDEHDETEDQTNMIAIQADGCYIVDALTPIEDFNERFNAEFPDDDYDTIGGLVTEAIGHLPETGDELTIGRFAFRVAKANARRIHILHVTVLPPNEQNTA	not soluble
MTFRGPSPPRFGHSMDLPAYAIEAEGLYKTYAGTKTSPEKRALNGIDLKIPRGSIFGLLGPNGAGKSTFINILAGLVRKSSGTVRIWGRDIDQRPRDARAAIGVVPQELAADVFFTPRESLEVQAGFYGVPKSERRTDELLNALGLGDKAGAYVRQLSGGMKRRLMVAKAMVHQPPVLILDEPTAGVDVELRRQLWQYVTSLNELGVTIVLTTHYLEEAQELCDEIAIINRGEVVACEPTAKLLSRMDSRNVVVTPESPVTAAPVLEGFDTKLRSGGAFSVSYRTGQSSVEQVLAAVRASGLHIKDIATEDPDLEDVFVALTYGDPNAADPTKDLEHHHHHH	not soluble
MTGMSERERQVMKKLKEVVDKQRDEIRAKDRELGLKNEDVEALQQQQTRLMKINHDLRHRVTVVEAQGKALIEQKVELEADLQTKEQEMGSLRAELGKLRERLQGEHSQNGEEEPETEPVGEESISDAEKVAMDLKDPNRPRFTLQELRDVLHERNELKSKVFLLQEELAYYKSEEMEEENRIPQPPPIAHPRTSPQPESGIKRLFSFFSRDKKRLANTQRNVHIQESFGQWANTHRDDGYTEQGQEALQHL	not soluble
MTGNAKLIDRVSAINWNRLQDEKDAEVWDRLTGNFWLPEKVPVSNDIPSWGTLTAGEKQLTMRVFTGLTMLDTIQGTVGAVSLIPDALTPHEEAVLTNIAFMESVHAKSYSQIFSTLCSTAEIDDAFRWSEENRNLQRKAEIVLQSYRGDEPLKRKVASTLLESFLFYSGFYLPMYWSSRAKLTNTADMIRLIIRDEAVHGYYIGYKFQRGLALVDDVTRAELKDYTYELLFELYDNEVEYTQDLYDEVGLTEDVKKFLRYNANKALMNLGYEALFPRDETDVNPAILSALSPNAD	soluble
MTGPTTDADAAVPRRVLIAEDEALIRMDLAEMLREEGYEIVGEAGDGQEAVELAELHKPDLVIMDVKMPRRDGIDAASEIASKRIAPIVVLTAFSQRDLVERARDAGAMAYLVKPFSISDLIPAIELAVSRFREITALEGEVATLSERLETRKLVERAKGLLQTKHGMTEPDAFKWIQRAAMDRRTTMKRVAEVVLETLGTPKDT	soluble
MTGYGSLFERLNGDADKRVGWSREVSAMASVAAHLGKMLSTRAGSVQTLSDYGLPDLNDMRLSLHDSLSQARSAIEGFIEAYEPRLSDVRVVSLPRDNDQLRLAFSIEGLLEVEGFKRQVSFSACLDGSGQVKVS	not soluble
MTGYPDVAAFDLDYTIWPCYCDTHLHGPFKPVKSSNGEVLTIICRDGYELTIYKDIPRILGDLKDNGVKLMTASRTWAPEIAQEILKIFKVKYAGVVTPLANLFDEFQWGERSKIGHLRDGLKDLYNTSDLKSKKICLFDDESRNKEVEKYGVKFVYVRDPENGPSWKLYQDYLSGKV	not soluble
MTHIIIDGDACPVVDSIIDLTTETGIFVTIIRSFSHFSNQLYPPHVSTLYVDDGPDAVDYKIVQLSTKDDIVVTQDYGLASLLVDKVLIVMHHNGKIYNSKNIQQLLDKRYINAQIRKQGGRHKGPPPFTKQDQKVFEQSLLKVIHRIKELDLEHHHHHH	soluble
